The target of one assay is T1, Human HER2-His (Homo sapiens, UniProt P04626).
T1 construct: His; purchased Sinobiologics 10004-H08H
Briefly: Affinity to target protein by biolayer interferometry (Octet Red96e). The assay is classed as binding. To be noted: analyte Human HER2-His. Here is the method: Antibody affinity was assessed using Octet Red96e (ForteBio). The association rate constant (ka), dissociation rate constant (kd) and affinity constant (KD) were measured by biolayer interferometry with anti-hIgG Fc (AHC) capture biosensors (Fortebio cat #18-5063). Each cycle was performed with orbital shake speed of 1,000 rpm. Antigen was titrated 1:2 from a suitable starting concentration in kinetics buffer (Fortebio, Cat #18-1105). A set of AHC biosensors was dipped in kinetics buffer for baseline step of 60s. Anti-Target VHH-Fc (5 μg/mL, in kinetics buffer) was loaded onto the biosensors for 240 s followed by a second baseline step of 30 s. The IgG captured sensors were dipped into buffer for single reference subtraction to compensate natural dissociation of capture IgG. Each biosensor was then dipped into corresponding concentration of target protein (human, murine or cynomolgus monomeric protein) for 600 s, followed by 1800 s of dissociation time in kinetics buffer, or conditions as optimized. A new set of AHC biosensors was used for every VHH-Fc. The data was analyzed by global fit 1:1 model for the association and dissociation step, (Octet software version v11.0).
In general terms: BLI is a label-free optical method that tracks binding on a fibre tip over time.

In a further assay the target is T2, hFcRn (Homo sapiens, UniProt P55899).
T2 construct: purchased Sino Biological CT071-H27H-B
T2 sequence (P55899 24-297 limits assumed): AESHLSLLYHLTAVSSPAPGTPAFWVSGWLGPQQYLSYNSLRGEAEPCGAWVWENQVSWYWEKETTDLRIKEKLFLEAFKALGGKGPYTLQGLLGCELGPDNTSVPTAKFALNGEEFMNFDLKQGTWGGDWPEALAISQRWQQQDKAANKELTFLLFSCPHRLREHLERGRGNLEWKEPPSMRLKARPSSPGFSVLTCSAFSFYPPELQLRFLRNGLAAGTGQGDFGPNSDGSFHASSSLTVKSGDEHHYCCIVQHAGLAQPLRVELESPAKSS
T2 sequence (P61769 21-119 partner): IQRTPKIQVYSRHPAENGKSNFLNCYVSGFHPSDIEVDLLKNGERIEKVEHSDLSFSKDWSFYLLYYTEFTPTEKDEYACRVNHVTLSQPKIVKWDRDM
Briefly: FcRn affinity by biolayer interferometry (Octet RED96e), pH 6.0. To be noted: pH 6.0, 2:1 binding model. Here is the method:
FcRn affinity of VHH-Fc can generally be used to predict the half-life of antibody serum clearance. (See, e.g., Datta-Mannan A et al. “FcRn affinity-pharmacokinetic relationship of five human IgG4 antibodies engineered for improved in vitro FcRn binding properties in cynomolgus monkeys.” Drug Metab Dispos. 2012 August; 40(8):1545-55). Briefly, 10 nM of biotinylated hFcRn (Sino Biological, Cat #: CT071-H27H-B) was captured with the SA biosensor using Octet RED96e (Fortebio). The hFcRN coated biosensor was dipped into the sample solutions in sodium phosphate buffer (100 mM Na2HPO4, 150 mM NaCl w/ 0.05% Tween-20, pH 6.0) with serial concentrations of tested antibodies and the association measured. The dissociation was measured by dipping the biosensors into sodium phosphate buffer without antibody. The KD values were determined using Octet Data Analysis HT 11.0 software. 2:1 (Heterogeneous Ligand) binding model was used in analysis. […] Changes in FcRn affinity were consistent across targets. Constructs with Fc Effector mutation only have no impact on FcRn affinity.

In the next assay the target is T3, FcγRI (Homo sapiens, UniProt P12314).
T3 construct: purchased Acro Biosystems
T3 sequence (P12314 16-374): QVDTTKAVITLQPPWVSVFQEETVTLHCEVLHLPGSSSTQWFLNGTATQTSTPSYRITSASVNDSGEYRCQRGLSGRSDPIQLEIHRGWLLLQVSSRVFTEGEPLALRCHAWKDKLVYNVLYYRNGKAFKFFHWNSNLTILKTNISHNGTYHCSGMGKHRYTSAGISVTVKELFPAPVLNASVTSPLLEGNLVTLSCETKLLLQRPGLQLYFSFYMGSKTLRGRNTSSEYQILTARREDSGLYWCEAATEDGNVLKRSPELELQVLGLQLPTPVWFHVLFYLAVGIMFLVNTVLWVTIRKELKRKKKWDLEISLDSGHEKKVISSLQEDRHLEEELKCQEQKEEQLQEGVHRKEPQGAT
Briefly: FcγR affinity by biolayer interferometry (Octet Red96e). The assay is classed as binding. Here is the method:
(§1) VHH-Fcs were also tested for affinity to FcγRs by biolayer interferometry using the Octet Red96e platform. Each cycle is performed with orbital shake speed of 1,000 rpm. Streptavidin (SA) biosensors (Sartorius 18-5019) were rehydrated for 10 mins using kinetics buffer (PBS+0.1% BSA+0.02% Tween-20). Biotinylated-FcγRs (Acro Biosystems) were then loaded for 40-100 s onto SA biosensors at concentrations ranging between 1-5 μg/mL diluted in PBS. VHH-Fcs were serially diluted 1:2 in sample buffer (PBS+0.02% Tween-20) with starting concentrations ranging between 5000 nM to 37.5 nM. Loaded biosensors were then associated with VHH-Fcs for 60-120 s. VHH-Fc dissociation was measured for 30-900 s in sample buffer. Bound VHH-Fcs were then removed using 3 cycles of 5 s regeneration buffer (150 mM NaCl, 300 mM Sodium Citrate) and 5 s sample buffer. The data was analyzed either using a globally-fitted 1:1 Langmuir binding model (FcγRI) or steady state analysis (Octet software version HT v11.1).

A further assay deals with T4, FcγRIIIa (F176) (Homo sapiens, UniProt P08637).
T4 construct: purchased Acro Biosystems
T4 sequence (P08637 17-208 limits assumed): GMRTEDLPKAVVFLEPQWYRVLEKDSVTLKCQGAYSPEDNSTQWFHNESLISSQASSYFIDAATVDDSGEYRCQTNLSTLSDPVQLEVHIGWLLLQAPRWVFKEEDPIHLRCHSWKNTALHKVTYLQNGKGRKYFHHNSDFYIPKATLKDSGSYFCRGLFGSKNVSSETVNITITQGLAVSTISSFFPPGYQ
Described as above. The assay is classed as binding. Here is the method: as §1

In a further assay the target is T5, FcγRIIIa (V176) (Homo sapiens, UniProt P08637, F176V).
T5 construct: purchased Acro Biosystems
T5 sequence (P08637 17-208 F176V limits assumed): as the sequence (P08637 17-208 limits assumed) above, with F160V counted along it
The description is as above. The assay is classed as binding. How it is done:
as §1

The target of a further assay is T6, FcγRIIa (H167) (Homo sapiens, UniProt P12318).
T6 construct: purchased Acro Biosystems
T6 sequence (P12318 36-218 limits assumed): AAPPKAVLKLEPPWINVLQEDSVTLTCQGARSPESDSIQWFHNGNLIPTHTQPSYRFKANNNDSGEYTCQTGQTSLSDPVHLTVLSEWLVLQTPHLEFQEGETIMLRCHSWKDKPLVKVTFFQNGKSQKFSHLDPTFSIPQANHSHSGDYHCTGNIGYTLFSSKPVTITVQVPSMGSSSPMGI
The description is as above. Format: binding. Here is the method:
as §1

Another assay has as its target T7, FcγRIIa (R167) (Homo sapiens, UniProt P12318, H167R).
T7 construct: purchased Acro Biosystems
T7 sequence (P12318 36-218 H167R limits assumed): T6 sequence (P12318 36-218 limits assumed) with H132R
The assay is described as above. The assay is classed as binding. Here is the method: as §1

For the next assay, the target named is T8, FcγRIIb/c (Homo sapiens, UniProt P31994).
T8 construct: purchased Acro Biosystems
T8 sequence (P31994 43-310): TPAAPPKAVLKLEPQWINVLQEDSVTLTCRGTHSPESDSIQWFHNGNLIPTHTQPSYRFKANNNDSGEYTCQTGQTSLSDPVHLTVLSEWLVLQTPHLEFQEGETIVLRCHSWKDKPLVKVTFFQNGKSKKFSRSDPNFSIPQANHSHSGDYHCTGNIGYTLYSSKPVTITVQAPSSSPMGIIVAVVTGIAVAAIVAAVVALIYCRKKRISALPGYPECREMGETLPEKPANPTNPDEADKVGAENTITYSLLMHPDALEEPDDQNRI
The assay is described as above. Format: binding. How it is done:
as §1

Where a chain is given by its changes, count along the chain named.

With “H101: anti-HER2 VHH-Fc (2RS15d VHH, human IgG1 Fc); FcRn wt, Fc effector wt [Compound H101]”, the Kd was 0.00379 µM with Human HER2-His; 3.7 nM with hFcRn; 1.01 nM with FcγRI; 1600 nM with FcγRIIIa (F176); 480 nM with FcγRIIIa (V176); 340 nM with FcγRIIa (H167). The figures for the Kd in the assay with FcγRIIa (R167) and with FcγRIIb/c were 160 nM and 450 nM, respectively.

One may read the Kd as the concentration at which binding is half-saturated. Low readings indicate a tighter complex, high ones a looser complex.

The record behind these values is patent publication US20260183437A1, “VHH ANTIBODY CONJUGATES WITH HETEROARYL CHELATORS” (ABDERA THERAPEUTICS INC., priority 2022, published 2026).
